The results in this text go back to PMC4847777.

For this series, the target named is T1, RamA (His6-RamA) (Corynebacterium glutamicum (ATCC 13032?)) (UniProt Q8NML3).
T1 sequence: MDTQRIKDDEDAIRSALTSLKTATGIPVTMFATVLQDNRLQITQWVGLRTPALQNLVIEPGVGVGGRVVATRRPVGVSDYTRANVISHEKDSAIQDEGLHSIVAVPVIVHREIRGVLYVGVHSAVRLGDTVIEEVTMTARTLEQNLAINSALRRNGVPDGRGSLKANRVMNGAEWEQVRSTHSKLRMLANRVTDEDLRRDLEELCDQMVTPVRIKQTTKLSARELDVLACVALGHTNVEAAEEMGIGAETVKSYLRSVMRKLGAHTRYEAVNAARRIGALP
Put plainly: EMSA. The settings on record: 10 mM Tris, 1 mM dithioerythritol, 1 mM EDTA, 1 ug poly[d(I-C)], 10% glycerol, 20 ul, about 70 ng DNA, 20 min at room temperature, pH not stated; 2% agarose in ….

With “TGAAGTATTGGGATCACGCCACGCAAGATCGCGGGCATTTGCTCTAAACCACACGAGCAGGGCTGTTTGAAAAGCTGTAAATGACATGACCTAAATGATTGTACTGACTGGCACTTTAGGTCATATGTCACACCGAGTGGAATAATAAAGCTTATGCCTTTGCGTAATGTTGAGGTACCCCG (double strand) [PF3]”, the binding entry was “no binding”.
